Measurements from PMC3457934.

Target: in vitro assembled HIV-1 CA-NC complexes (HIV-1)
Test: co-sedimentation; 5 µl in vitro assembled CA-NC particles incubated with 200 µl 293T cell lysate (capsid-binding buffer plus 1X PBS) at room temperature for 1 hour; spun through a 70% sucrose cushion at 100,000×g for 1 hour at 4°C; pellet (BOUND) and INPUT analysed by Western blotting (anti-GFP, anti-HA, anti-p24); fluorescent quantification of three independent experiments

Substance	ratio bound/input
GFP-RanBP2 (full-length Nup358/RanBP2 fused to GFP) (from UniProt P49792 1-3224) (natural protein)	1
GFP-RanBP2-ΔCyp deletion mutant (from UniProt P49792 1-2786) (domain or fragment)	0.39
